{"source": "the Immune Epitope Database (IEDB)", "key": {"HLA-A*03:01": {"target": "HLA-A*03:01", "experiment": "IEDB peptide-MHC binding, purified MHC/direct/fluorescence; filed as Kd, often an IC50 or EC50 that approximates it; ≥ and ≤ were set here for values at or beyond the usual limits of such assays"}, "HLA-A*31:01": {"target": "HLA-A*31:01", "experiment": "IEDB peptide-MHC binding, purified MHC/direct/fluorescence; filed as Kd, often an IC50 or EC50 that approximates it; ≥ and ≤ were set here for values at or beyond the usual limits of such assays", "details": "source organism: Entamoeba histolytica HM-1:IMSS"}, "HLA-B*18:01": {"target": "HLA-B*18:01", "experiment": "IEDB peptide-MHC binding, purified MHC/direct/fluorescence; filed as Kd, often an IC50 or EC50 that approximates it; ≥ and ≤ were set here for values at or beyond the usual limits of such assays"}, "HLA-A*68:02": {"target": "HLA-A*68:02", "experiment": "IEDB peptide-MHC binding, purified MHC/competitive/radioactivity; filed as Kd, often an IC50 or EC50 that approximates it; ≥ and ≤ were set here for values at or beyond the usual limits of such assays"}, "HLA-B*57:01": {"target": "HLA-B*57:01", "experiment": "IEDB peptide-MHC binding, purified MHC/direct/fluorescence; filed as Kd, often an IC50 or EC50 that approximates it; ≥ and ≤ were set here for values at or beyond the usual limits of such assays", "details": "source organism: Giardia lamblia ATCC 50803"}, "HLA-B*58:01": {"target": "HLA-B*58:01", "experiment": "IEDB peptide-MHC binding, purified MHC/direct/fluorescence; filed as Kd, often an IC50 or EC50 that approximates it; ≥ and ≤ were set here for values at or beyond the usual limits of such assays"}, "HLA-A*30:01": {"target": "HLA-A*30:01", "experiment": "IEDB peptide-MHC binding, purified MHC/competitive/radioactivity; filed as Kd, often an IC50 or EC50 that approximates it; ≥ and ≤ were set here for values at or beyond the usual limits of such assays"}, "HLA-A*11:01": {"target": "HLA-A*11:01", "experiment": "IEDB peptide-MHC binding, purified MHC/direct/fluorescence; filed as Kd, often an IC50 or EC50 that approximates it; ≥ and ≤ were set here for values at or beyond the usual limits of such assays", "details": "source organism: SARS-CoV1"}, "HLA-B*08:01": {"target": "HLA-B*08:01", "experiment": "IEDB peptide-MHC binding, purified MHC/direct/fluorescence; filed as Kd, often an IC50 or EC50 that approximates it; ≥ and ≤ were set here for values at or beyond the usual limits of such assays", "details": "source organism: SARS-CoV1"}, "HLA-B*27:05": {"target": "HLA-B*27:05", "experiment": "IEDB peptide-MHC binding, purified MHC/direct/fluorescence; filed as Kd, often an IC50 or EC50 that approximates it; ≥ and ≤ were set here for values at or beyond the usual limits of such assays"}, "HLA-A*01:01 [1]": {"target": "HLA-A*01:01", "experiment": "IEDB peptide-MHC binding, purified MHC/direct/fluorescence; filed as Kd, often an IC50 or EC50 that approximates it; ≥ and ≤ were set here for values at or beyond the usual limits of such assays", "details": "source organism: Escherichia coli O157:H7"}, "HLA-A*02:01": {"target": "HLA-A*02:01", "experiment": "IEDB peptide-MHC binding, purified MHC/direct/fluorescence; filed as Kd, often an IC50 or EC50 that approximates it; ≥ and ≤ were set here for values at or beyond the usual limits of such assays", "details": "source organism: Escherichia coli O157:H7"}, "HLA-B*07:02": {"target": "HLA-B*07:02", "experiment": "IEDB peptide-MHC binding, purified MHC/direct/fluorescence; filed as Kd, often an IC50 or EC50 that approximates it; ≥ and ≤ were set here for values at or beyond the usual limits of such assays", "details": "source organism: Escherichia coli O157:H7"}, "HLA-B*15:01": {"target": "HLA-B*15:01", "experiment": "IEDB peptide-MHC binding, purified MHC/direct/fluorescence; filed as Kd, often an IC50 or EC50 that approximates it; ≥ and ≤ were set here for values at or beyond the usual limits of such assays", "details": "source organism: Escherichia coli O157:H7"}, "HLA-B*40:01": {"target": "HLA-B*40:01", "experiment": "IEDB peptide-MHC binding, purified MHC/direct/fluorescence; filed as Kd, often an IC50 or EC50 that approximates it; ≥ and ≤ were set here for values at or beyond the usual limits of such assays", "details": "source organism: Escherichia coli O157:H7"}, "HLA-B*44:02": {"target": "HLA-B*44:02", "experiment": "IEDB peptide-MHC binding, purified MHC/direct/fluorescence; filed as Kd, often an IC50 or EC50 that approximates it; ≥ and ≤ were set here for values at or beyond the usual limits of such assays", "details": "source organism: Escherichia coli O157:H7"}, "HLA-A*01:01 [2]": {"target": "HLA-A*01:01", "experiment": "IEDB peptide-MHC binding, purified MHC/competitive/radioactivity; filed as Kd, often an IC50 or EC50 that approximates it; ≥ and ≤ were set here for values at or beyond the usual limits of such assays"}, "HLA-A*26:01": {"target": "HLA-A*26:01", "experiment": "IEDB peptide-MHC binding, purified MHC/competitive/radioactivity; filed as Kd, often an IC50 or EC50 that approximates it; ≥ and ≤ were set here for values at or beyond the usual limits of such assays"}, "HLA-A*29:02": {"target": "HLA-A*29:02", "experiment": "IEDB peptide-MHC binding, purified MHC/competitive/radioactivity; filed as Kd, often an IC50 or EC50 that approximates it; ≥ and ≤ were set here for values at or beyond the usual limits of such assays"}, "HLA-A*30:02": {"target": "HLA-A*30:02", "experiment": "IEDB peptide-MHC binding, purified MHC/competitive/radioactivity; filed as Kd, often an IC50 or EC50 that approximates it; ≥ and ≤ were set here for values at or beyond the usual limits of such assays"}, "HLA-A*32:01": {"target": "HLA-A*32:01", "experiment": "IEDB peptide-MHC binding, purified MHC/competitive/radioactivity; filed as Kd, often an IC50 or EC50 that approximates it; ≥ and ≤ were set here for values at or beyond the usual limits of such assays"}, "[3]": {"details": "source organism: Dengue virus 2 Jamaica/1409/1983"}, "[4]": {"details": "source organism: Giardia lamblia ATCC 50803"}, "[5]": {"details": "source organism: Escherichia coli O157:H7"}, "[6]": {"details": "source organism: Mammarenavirus juninense"}, "[7]": {"details": "source organism: Mammarenavirus guanaritoense"}}, "data": [{"sequence": "LWNFIHQQR", "values": [{"measurement": "Kd", "setting": "HLA-A*03:01; source organism: Entamoeba histolytica HM-1:IMSS", "result": "≥ 20", "unit": "µM"}, {"measurement": "Kd", "setting": "HLA-A*31:01", "result": 0.0122, "unit": "µM"}]}, {"sequence": "REDIWCGSL", "values": [{"measurement": "Kd", "setting": "HLA-B*18:01; source organism: West Nile virus", "result": 7.08, "unit": "µM"}]}, {"sequence": "SSAAQRRGRI", "values": [{"measurement": "Kd", "setting": "HLA-A*68:02; [3]", "result": 0.051, "unit": "µM"}]}, {"sequence": "PTAPSDGGM", "values": [{"measurement": "Kd", "setting": "HLA-B*57:01", "result": "≥ 20", "unit": "µM"}, {"measurement": "Kd", "setting": "HLA-B*58:01; [4]", "result": 9, "unit": "µM"}]}, {"sequence": "MAVLFVVTLI", "values": [{"measurement": "Kd", "setting": "HLA-A*68:02; source organism: Dengue virus 4 Philippines/H241/1956", "result": 0.533, "unit": "µM"}]}, {"sequence": "RARISQGAG", "values": [{"measurement": "Kd", "setting": "HLA-A*30:01; [3]", "result": 0.126, "unit": "µM"}]}, {"sequence": "EHYVRITGL", "values": [{"measurement": "Kd", "setting": "HLA-A*11:01", "result": "≥ 24.3", "unit": "µM"}, {"measurement": "Kd", "setting": "HLA-B*08:01", "result": 3.53, "unit": "µM"}, {"measurement": "Kd", "setting": "HLA-B*27:05; source organism: SARS-CoV1", "result": "≥ 46.9", "unit": "µM"}]}, {"sequence": "SMYQLMITI", "values": [{"measurement": "Kd", "setting": "HLA-A*01:01 [1]", "result": "≥ 20", "unit": "µM"}, {"measurement": "Kd", "setting": "HLA-A*02:01", "result": 0.827, "unit": "µM"}, {"measurement": "Kd", "setting": "HLA-A*03:01; [5]", "result": "≥ 20", "unit": "µM"}, {"measurement": "Kd", "setting": "HLA-B*07:02", "result": "≥ 20", "unit": "µM"}, {"measurement": "Kd", "setting": "HLA-B*15:01", "result": "≥ 20", "unit": "µM"}, {"measurement": "Kd", "setting": "HLA-B*27:05; [5]", "result": "≥ 20", "unit": "µM"}, {"measurement": "Kd", "setting": "HLA-B*40:01", "result": "≥ 10", "unit": "µM"}, {"measurement": "Kd", "setting": "HLA-B*44:02", "result": "≥ 20", "unit": "µM"}, {"measurement": "Kd", "setting": "HLA-B*58:01; [5]", "result": "≥ 20", "unit": "µM"}]}, {"sequence": "LYDVIPVTY", "values": [{"measurement": "Kd", "setting": "HLA-A*01:01 [2]; [6]", "result": 0.145, "unit": "µM"}, {"measurement": "Kd", "setting": "HLA-A*26:01; [6]", "result": "≥ 77.9", "unit": "µM"}, {"measurement": "Kd", "setting": "HLA-A*29:02; [6]", "result": 0.375, "unit": "µM"}, {"measurement": "Kd", "setting": "HLA-A*30:01; [6]", "result": "≥ 78.1", "unit": "µM"}, {"measurement": "Kd", "setting": "HLA-A*30:02; [6]", "result": 4.2, "unit": "µM"}, {"measurement": "Kd", "setting": "HLA-A*32:01; [6]", "result": "≥ 77.8", "unit": "µM"}]}, {"sequence": "IELEHLRGL", "values": [{"measurement": "Kd", "setting": "HLA-B*18:01; [4]", "result": 0.01, "unit": "µM"}]}, {"sequence": "CTLEGVWAPF", "values": [{"measurement": "Kd", "setting": "HLA-A*01:01 [2]; [7]", "result": 1.22, "unit": "µM"}, {"measurement": "Kd", "setting": "HLA-A*26:01; [7]", "result": 0.116, "unit": "µM"}, {"measurement": "Kd", "setting": "HLA-A*29:02; [7]", "result": 0.957, "unit": "µM"}, {"measurement": "Kd", "setting": "HLA-A*30:01; [7]", "result": 6.96, "unit": "µM"}, {"measurement": "Kd", "setting": "HLA-A*30:02; [7]", "result": 0.937, "unit": "µM"}, {"measurement": "Kd", "setting": "HLA-A*32:01; [7]", "result": 0.0442, "unit": "µM"}]}]}
